Assay results as given in patent US8889620B2, “Pharmaceutical compositions comprising peptide antagonists of vascular endothelial growth factor” (Children's Medical Center Corporation, priority 1997, dated 2014).
“Also recorded” adds a separate entry of the source. Where no end group is shown, it is not given here.

Tests used:
[1] = target: T1, KDR/Flk-1 on PAE-KDR cells (Homo sapiens, UniProt P35968); assay: Inhibition of 125I-VEGF165 binding to PAE-KDR cells; design: species or system porcine endothelial cells transfected to express KDR/Flk-1
T1 construct: expressed in transfected cells; host or cells: porcine endothelial cells (PAE), gift of Dr. Claesson-Welsh
T1 sequence (P35968 20-1356): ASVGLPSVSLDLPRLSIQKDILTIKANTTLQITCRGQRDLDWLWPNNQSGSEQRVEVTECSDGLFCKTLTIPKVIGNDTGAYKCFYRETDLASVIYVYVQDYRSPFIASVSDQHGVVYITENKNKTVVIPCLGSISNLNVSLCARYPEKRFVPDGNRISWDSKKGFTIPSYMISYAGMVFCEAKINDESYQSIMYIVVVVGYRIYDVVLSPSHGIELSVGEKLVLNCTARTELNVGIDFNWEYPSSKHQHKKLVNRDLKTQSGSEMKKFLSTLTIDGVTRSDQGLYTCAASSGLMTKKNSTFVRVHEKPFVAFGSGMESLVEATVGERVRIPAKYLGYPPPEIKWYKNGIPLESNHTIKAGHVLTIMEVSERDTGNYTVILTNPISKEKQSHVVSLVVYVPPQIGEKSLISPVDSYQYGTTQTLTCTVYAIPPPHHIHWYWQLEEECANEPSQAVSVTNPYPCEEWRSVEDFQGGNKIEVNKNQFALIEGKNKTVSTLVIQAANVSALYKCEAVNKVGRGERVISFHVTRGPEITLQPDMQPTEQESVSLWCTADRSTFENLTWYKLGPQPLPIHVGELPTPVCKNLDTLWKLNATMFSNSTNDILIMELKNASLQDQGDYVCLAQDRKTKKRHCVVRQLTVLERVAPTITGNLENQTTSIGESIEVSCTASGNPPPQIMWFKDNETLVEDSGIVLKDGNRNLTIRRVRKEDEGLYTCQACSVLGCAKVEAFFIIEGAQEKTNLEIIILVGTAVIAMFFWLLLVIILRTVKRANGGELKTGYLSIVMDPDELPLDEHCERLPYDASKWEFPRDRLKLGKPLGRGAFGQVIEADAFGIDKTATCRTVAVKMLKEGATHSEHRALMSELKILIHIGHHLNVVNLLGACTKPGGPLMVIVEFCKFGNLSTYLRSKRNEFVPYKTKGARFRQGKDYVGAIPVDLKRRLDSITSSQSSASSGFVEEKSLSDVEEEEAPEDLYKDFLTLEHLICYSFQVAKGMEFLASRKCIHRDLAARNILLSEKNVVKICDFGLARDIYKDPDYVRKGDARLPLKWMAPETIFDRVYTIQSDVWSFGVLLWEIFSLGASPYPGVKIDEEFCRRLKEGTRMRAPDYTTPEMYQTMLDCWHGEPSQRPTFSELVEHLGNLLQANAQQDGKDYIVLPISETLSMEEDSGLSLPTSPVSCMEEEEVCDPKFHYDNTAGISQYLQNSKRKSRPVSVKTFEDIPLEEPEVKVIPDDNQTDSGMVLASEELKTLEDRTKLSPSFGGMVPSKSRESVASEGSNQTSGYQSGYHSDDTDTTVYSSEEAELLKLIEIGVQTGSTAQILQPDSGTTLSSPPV
Method: (§1) FIGS. 3A-3C. Inhibition of ^125I-VEGF165 binding to HUVEC, MDA MB 231 cells, and PAE-KDR cells by GST-EX 7+8. ^125I-VEGF165 (5 ng,/ml) was bound to subconfluent cultures of HUVEC (3A), MDA MB 23 1 cells (3B), and PAE-KDR cells (3C) in 48-well dishes in the presence of increasing amounts of GST-Ex 7+8 (closed 20 square) or control GST protein (open squares). At the end of a 2-h incubation, the cells were washed and lysed, and the cell-associated radioactivity was determined with a γ-counter. The counts obtained are expressed as the percentage of the counts obtained in the presence of PBS without addition of GST or fusion protein.
Human umbilical vein endothelial cells (HUVEC) were obtained from the American Type Culture Collection (ATCC) (Rockville, Md.) and grown on gelatin-coated dishes in M-199 medium containing 20% fetal calf serum (FCS) and a mixture of glutamine, penicillin, and streptomycin (GPS). Basic FGF (1 nglml) was added to the culture medium every other day. Porcine endothelial cells (PAE), parental and transfected to express KDRElk-1 (PAE-KDR), were kindly provided by Dr. Lema Claesson-Welsh and grown in F12 medium containing 10% FCS and GPS as described (Waltenberger, et al., J. Biol. Chem., 269,26988-26995 (1994)). MDAMB-231 (231) cells were obtained from ATCC and grown in Bulbecoo's modified Eagle's medium containing 10% FCS and GPS.
(§2) Binding and cross-linking experiments using 125I-VEGF165 and 125I-VEGF121 were performed at described previously (Gitay-Goren, et al., J. Biol. Chem., 287, 6003-6096 (1992), Soker, et al., J: Biol. Chem., 271,5761-5767 (1996)). VEGF binding was quantified by measuring the cell-associated radioactivity in a y-counter (Beckman, Gamma 5500). The counts represent the average of three walls. All experiments were repeated at least three times, and similar results were obtained. 125I-VEGF cross-linked complexes were resolved by 6% SDS-PAGE, and the gels were exposed to a phosphor screen and scanned after 24 h by a PhosphorImager (Molecular Dynamics). Subsequently, the gels were exposed to x-ray film.

[2] = system: VEGF165-induced proliferation of HUVEC; assay: Inhibition of VEGF165-stimulated HUVEC proliferation; format: cell-based, human; conditions: even at 25 ug/ml
Method: (§3) FIG. 6. GST-Ex 7+8 fusion protein inhibits VEGF165-stimulated HUVEC proliferation. HUVEC were cultured in 96-well dishes (5,000 cell/well) as in FIG. 2. Increasing concentrations of VEGF165 (open circles), together with 15 ug/ml GST-Ex 7+8 (closed circles) or 25 ug/ml GST (squares), were added to the medium, and the cells were incubated for 4 more days. DNA synthesis was measured in HUVEC as described in FIG. 2. The results represent the average counts of three wells, and the standard deviations were determined.
FIG. 7. GST-Ex 7+8 fusion protein inhibits VEGF165 and VEGF121-stimulated HUVEC proliferation. Increasing concentration of VEGF165 (circles) or VEGF121 (square) with 15 ug/ml GST-Ex 7+8 (closed symbols) or without GST-Ex 7+8 (open symbols) were added to HUVEC, and [*H]thymidine incorporation into the DNA was measured as in FIG. 2. The results represent the average counts of three wells and the standard deviations were determined.
(§4) HUVEC were seeded in gelatin-coated 96-well dishes at 4,000 cells/200 Ul/well in M-199 containing 5% FCS and GPS. After 24 H, VEGF isoforms and VEGF exon 7-GST fusion proteins were added to the wells at the same time. The cells were incubated for 72 h, and [3H]thymidine (1 pC/ml) was added for 10-12 h. The medium was aspirated, and the cells were trypsinized and harvested by an automatic cell harvester (TOMTEC) and loaded onto Filtermats (Wallac). The Filtermats were scanned and cpm were determined by a MicroBeta counter (Wallac). The results represent the average of samples assayed in triplicate, and the standard derivations were determined. All experiments were repeated at least three times and similar results were obtained.

[3] = target: T2, KDR/Flk-1 and VEGF165R on HUVEC (Homo sapiens, UniProt O14786); assay: Inhibition of 125I-VEGF165 binding to HUVEC
T2 construct: HUVEC, which express both KDR/Flk-1 and VEGF165R; endogenous in cells; host or cells: HUVEC (ATCC)
T2 sequence (O14786 22-923): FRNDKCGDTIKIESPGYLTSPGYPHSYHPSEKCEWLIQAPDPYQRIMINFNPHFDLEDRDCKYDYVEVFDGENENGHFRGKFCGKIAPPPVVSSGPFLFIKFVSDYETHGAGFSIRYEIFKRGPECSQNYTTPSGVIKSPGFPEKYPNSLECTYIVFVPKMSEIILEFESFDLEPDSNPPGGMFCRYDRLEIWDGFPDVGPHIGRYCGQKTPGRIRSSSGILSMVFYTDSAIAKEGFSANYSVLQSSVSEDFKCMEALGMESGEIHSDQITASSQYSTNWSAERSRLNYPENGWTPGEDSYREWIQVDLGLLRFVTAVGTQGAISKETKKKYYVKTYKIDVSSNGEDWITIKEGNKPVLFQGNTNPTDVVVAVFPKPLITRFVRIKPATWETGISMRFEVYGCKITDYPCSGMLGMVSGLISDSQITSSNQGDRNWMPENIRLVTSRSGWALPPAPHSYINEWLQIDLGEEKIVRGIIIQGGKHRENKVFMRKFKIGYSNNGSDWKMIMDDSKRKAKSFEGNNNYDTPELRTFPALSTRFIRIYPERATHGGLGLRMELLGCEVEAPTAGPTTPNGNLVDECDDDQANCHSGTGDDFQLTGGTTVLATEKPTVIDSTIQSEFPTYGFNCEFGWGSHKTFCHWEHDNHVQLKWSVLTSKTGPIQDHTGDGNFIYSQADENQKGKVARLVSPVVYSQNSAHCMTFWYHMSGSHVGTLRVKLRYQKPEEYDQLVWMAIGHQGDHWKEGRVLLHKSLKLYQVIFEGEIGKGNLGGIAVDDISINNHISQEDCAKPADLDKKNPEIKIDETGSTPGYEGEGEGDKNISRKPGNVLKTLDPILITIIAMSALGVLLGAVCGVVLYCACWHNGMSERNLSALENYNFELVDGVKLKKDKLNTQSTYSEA
Method: as §1
FIGS. 5A and 5B. Localization of a core inhibitory region within exon 7. GST-Ex 7 fusion proteins containing full-length exon 7-encoded domain or truncations at the N-terminal and C-terminal ends were prepared as described in the Examples. ^125I-VEGF165 (5 ng/ml) was bound to subconfluent HUVEC cultures as described in FIG. 3, in the presence of increasing concentrations of the GST fusion proteins. At the end of a 2-h incubation, the cells were washed and lysed, and the cell-associated radioactivity was determined with a y counter. The counts obtained are expressed as percentage of the counts obtained in the presence of PBS without fusion protein B, the amino acid sequences of VEGF exon 7 derivatives. These derivatives were prepared to contain the first cysteine residue of exon 8 at their C termini to keep an even number of cysteine residue. FIG. 5B discloses SEQ ID NO: 19.
as §2

[4] = target: T3, VEGF165R on 231 cells (Homo sapiens, UniProt O14786); assay: Inhibition of 125I-VEGF165 binding to MDA-MB-231 (231) cells
T3 construct: to 231 cells which express only VEGF165R; endogenous in cells; host or cells: MDA-MB-231 (ATCC)
T3 sequence (O14786 22-923): as above
Method: as §1, §2

[5] = target: T3, VEGF165R on 231 cells; conditions: Soker et al., J. Biol. Chem. 271, 5761-5767 (1996); cited from earlier work
[6] = target: VEGF165R (Homo sapiens, UniProt O14786); assay: Direct binding/cross-linking of 125I-GST-Ex 7 to HUVEC: VEGF165R; design: HUVEC, which express both KDR/Flk-1 and VEGF165R; endogenous in cells; host or cells: HUVEC (ATCC); conditions: cross-linking, 1 ug/ml heparin, FIG. 1 lane 3; listed as exon 7 fusion protein
Chain of VEGF165R (O14786 22-923): as above
Method: (§5) FIG. 1. Cross-linking of 1 ^125I-VEGF165, ^125I-VEGF121 and ^125I-GST-EX 7 to HUVEC. ^125I-VEGF165 (5 ng/ml) (lane 1) or ^125I-VEGF121 (10 ng/ml) (lane 2) or ^125I-GST-EX 7 (50 nglml) (lane 3) were bound to subconfluent cultures of HUVEC in 6-cm dishes. The binding was carried out in the presence of 1 ug/ml heparin. At the end of a 2-H incubation, each ^125I-VEGF isoform was chemically cross-linked to the cell surface. The cells were lysed and proteins were resolved by 6% SDS-PAGE. The polyacrylamide gel was dried and exposed to x-ray film.
as §2

[7] = target: KDR/Flk-1 (Homo sapiens, UniProt P35968); assay: Direct binding/cross-linking of 125I-GST-Ex 7 to HUVEC: KDR/Flk-1; design: HUVEC, which express both KDR/Flk-1 and VEGF165R; endogenous in cells; host or cells: HUVEC (ATCC); conditions: cross-linking, 1 ug/ml heparin, FIG. 1 lane 3; listed as exon 7 fusion protein
Chain of KDR/Flk-1 (P35968 20-1356): as the sequence (P35968 20-1356) above
Method: as §5, §2

[8] = system: HUVEC; assay: HUVEC proliferation ([3H]thymidine incorporation) in response to VEGF isoforms; format: cell-based, human
Method: FIG. 2. HUVEC proliferation in response to VEGF165 and VEGF121 HUVEC were cultured in 96-well dishes (5,000 cell/well) for 24 h. Increasing amounts of VEGF165 (closed circles) or VEGF121 (open circles) were added to the medium, and the cells were incubated for 3 more days. DNA synthesis based on the incorporation of [3H] thymidine into HUVEC DNA was measured as described in the Examples. The results represent the average counts in three wells, and the standard deviations were determined.
as §3, §4

[9] = control GST protein, even at 20 μg/ml

GST protein: glutathione S-transferase alone, control protein prepared in a similar way [reference compound]
effect of GST alone on 125I-VEGF165 binding to PAE-KDR cells (in words) [1, 9]: no significant effect; also recorded: did not inhibit | inhibition of HUVEC proliferation by GST alone (in words) [2]: did not inhibit | effect of GST alone on 125I-VEGF165 binding to HUVEC (in words) [3, 9]: no significant effect; also recorded: did not inhibit | effect of GST alone on 125I-VEGF165 binding to 231 cells (in words) [4, 9]: no significant effect; also recorded: did not inhibit

GST-Ex 7: GST fusion protein with the entire 44 amino acid VEGF exon 7-encoded domain plus first cysteine residue of exon 8
direct binding to VEGF165R on 231 cells (in words) [5]: binds directly | inhibition of 125I-VEGF165 binding to PAE-KDR cells (in words) ([1]; 125I-VEGF165 5 ng/ml, FIG. 3C): did not, however, inhibit at all | direct binding to VEGF165R on HUVEC (in words) [6]: binds directly; also recorded: could bind | direct binding to KDR/Flk-1 on HUVEC (in words) [7]: not and does not bind directly | inhibition of 125I-VEGF165 binding to HUVEC ([3]; 2 ug/ml fusion protein, FIG. 5): 80% | inhibition of 125I-VEGF165 binding to HUVEC ([3]; 125I-VEGF165 5 ng/ml, increasing concentrations of fusion protein, FIG. 3A): 85-95% | inhibition of 125I-VEGF165 binding to HUVEC compared with GST-Ex 7+8 (in words) ([3]; data not shown): comparable to that of GST-Ex 7+8 | inhibition of 125I-VEGF165 binding to 231 cells ([4]; 125I-VEGF165 5 ng/ml, increasing concentrations of fusion protein, FIG. 3B): 98% | inhibition of 125I-VEGF165 binding to 231 cells compared with GST-Ex 7+8 (in words) ([4]; data not shown): comparable to that of GST-Ex 7+8

GST-Ex 7d-(1-10): GST-exon 7 fusion protein with the first 10 N-terminal amino acids of exon 7 deleted (HLFVQDPQTCKCSCKNTDSRCKARQLELNERTCRC; cysteine pairing not given here; also: GST fusion protein, side of fusion not given here)
inhibitory activity on 125I-VEGF165 binding to HUVEC after deletion in exon 7, versus GST-Ex 7 (in words) ([3]; FIG. 5, increasing concentrations): did not reduce the inhibitory activity

VEGF165: human recombinant vascular endothelial growth factor 165 isoform produced in Sf-21 insect cells
increase in the proliferation rate of HUVEC ([8]; 1-5 ng/ml VEGF165, FIG. 6): 5.5 fold | concentration at which the proliferation increase peaks ([8]; FIG. 6): 2.5 ng/mL | concentration for maximal stimulation of DNA synthesis ([8]; HUVEC, FIG. 2): 4 ng/mL | increase in HUVEC proliferation over control at maximal stimulation ([8]; HUVEC, FIG. 2): 8 fold | concentration for half-maximal stimulation of DNA synthesis ([8]; HUVEC, [3H]thymidine incorporation, FIG. 2): 1 ng/mL

B1: VEGF121: human recombinant vascular endothelial growth factor 121 isoform produced in Sf-21 insect cells (protein)
chain: APMAEGGGQNHHEVVKFMDVYQRSYCHPIETLVDIFQEYPDEIEYIFKPSCVPLMRCGGCCNDEGLECVPTEESNITMQIMRIKPHQGQHIGEMSFLQHNKCECRPKKDRARQEKCDKPRR
concentration for maximal stimulation of DNA synthesis ([8]; HUVEC, FIG. 2): 20 ng/mL | increase in HUVEC proliferation over control at maximal stimulation ([8]; HUVEC, FIG. 2): 4 fold
